Measured values as given in PMC5758917 (Nucleic Acids Research, 2017).

Molecular target: T1, GST-E1 (HPV 11 E1 fused to GST) (human papillomavirus type 11, UniProt P04014 1-649)
T1 sequence: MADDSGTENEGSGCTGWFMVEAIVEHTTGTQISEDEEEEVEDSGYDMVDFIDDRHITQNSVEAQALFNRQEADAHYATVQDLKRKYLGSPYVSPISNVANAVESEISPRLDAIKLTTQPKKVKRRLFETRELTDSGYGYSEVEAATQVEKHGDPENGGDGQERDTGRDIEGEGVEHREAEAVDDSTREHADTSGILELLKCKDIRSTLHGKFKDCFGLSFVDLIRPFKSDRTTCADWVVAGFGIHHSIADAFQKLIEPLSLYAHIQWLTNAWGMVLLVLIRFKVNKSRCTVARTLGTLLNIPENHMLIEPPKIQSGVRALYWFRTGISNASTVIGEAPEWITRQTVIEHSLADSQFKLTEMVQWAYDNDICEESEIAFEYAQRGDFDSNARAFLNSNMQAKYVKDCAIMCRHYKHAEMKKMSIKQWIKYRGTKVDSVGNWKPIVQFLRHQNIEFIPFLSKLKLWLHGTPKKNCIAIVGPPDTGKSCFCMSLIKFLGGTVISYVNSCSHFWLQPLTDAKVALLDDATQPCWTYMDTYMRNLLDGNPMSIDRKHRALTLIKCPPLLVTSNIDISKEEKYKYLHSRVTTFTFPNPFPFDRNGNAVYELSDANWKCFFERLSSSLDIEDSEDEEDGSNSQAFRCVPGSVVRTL
Test: far-Western, overlay or dot blot

B1: p50 subunit of pol δ (natural protein)
chain: not shown
- binding result: binds
